Data set [1] concerns the target T1, T308tide.
T1 chain: KTFCGTPEYLAPEVRR

The target of data set [2] is PDKtide.
Data set [3] concerns the target T2, PIFtide.
T2 chain: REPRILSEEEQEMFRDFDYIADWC

Data set [4] deals with GST-PKBα[F472A], P31749.
The target of data set [5] is T3, GST-?PH-PKBα[S473D], P31749.
T3 chain: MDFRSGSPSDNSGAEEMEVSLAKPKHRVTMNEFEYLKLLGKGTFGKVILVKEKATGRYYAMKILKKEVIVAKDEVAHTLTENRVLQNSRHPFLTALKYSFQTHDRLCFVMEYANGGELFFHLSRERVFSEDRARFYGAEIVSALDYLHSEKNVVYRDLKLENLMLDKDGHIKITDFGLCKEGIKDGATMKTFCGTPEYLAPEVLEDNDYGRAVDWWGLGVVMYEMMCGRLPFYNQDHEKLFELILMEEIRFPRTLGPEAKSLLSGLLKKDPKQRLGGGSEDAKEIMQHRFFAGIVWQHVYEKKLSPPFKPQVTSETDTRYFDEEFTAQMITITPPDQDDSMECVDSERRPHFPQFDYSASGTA

Data set [6] addresses T4, D978A-PIFtide.
T4 chain: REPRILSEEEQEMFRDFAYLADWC

Data set [7] deals with GST-S6K1-T2[F411A], P23443.
For data set [8], the target named is GST-FL-PKB, P31749.
The target in data set [9] is GST-SGK1[T422D] (lacking the N-terminal 60 amino acids), O00141.
The target of data set [10] is T5, SGK1[F421A], O00141.
T5 chain: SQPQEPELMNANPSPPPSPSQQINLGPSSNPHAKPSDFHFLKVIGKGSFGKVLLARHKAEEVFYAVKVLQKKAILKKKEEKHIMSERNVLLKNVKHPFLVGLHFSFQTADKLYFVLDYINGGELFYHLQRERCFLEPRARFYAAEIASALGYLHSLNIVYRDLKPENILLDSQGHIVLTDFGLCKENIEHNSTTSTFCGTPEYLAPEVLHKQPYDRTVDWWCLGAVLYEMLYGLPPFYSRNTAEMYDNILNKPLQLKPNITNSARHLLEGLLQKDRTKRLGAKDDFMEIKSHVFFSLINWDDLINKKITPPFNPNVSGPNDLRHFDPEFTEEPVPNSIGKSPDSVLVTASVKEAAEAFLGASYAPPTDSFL

For data set [11], the target named is 412E-p70 S6K-T2 (His-tagged, insect cells), P23443.
For data set [12], the target named is T6, GST-SGK1 (lacking the N-terminal 60 amino acids), O00141.
T6 chain: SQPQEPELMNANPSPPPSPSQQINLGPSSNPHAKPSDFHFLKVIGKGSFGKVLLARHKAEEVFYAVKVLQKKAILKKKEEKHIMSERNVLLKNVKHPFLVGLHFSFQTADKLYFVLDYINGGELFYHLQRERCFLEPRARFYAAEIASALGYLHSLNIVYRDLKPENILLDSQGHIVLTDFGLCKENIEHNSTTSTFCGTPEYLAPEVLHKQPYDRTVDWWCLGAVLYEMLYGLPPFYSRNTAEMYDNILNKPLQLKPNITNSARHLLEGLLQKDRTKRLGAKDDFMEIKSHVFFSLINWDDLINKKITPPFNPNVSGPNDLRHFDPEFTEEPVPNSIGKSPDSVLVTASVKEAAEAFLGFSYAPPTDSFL

The target in data set [13] is GST-FL-PKB 473D, P31749.
Data set [14] deals with p70 S6K-T2 (His-tagged, insect cells), P23443.
For data set [15], the target named is T7, GST-?PH-PKBα[F472A], P31749.
T7 chain: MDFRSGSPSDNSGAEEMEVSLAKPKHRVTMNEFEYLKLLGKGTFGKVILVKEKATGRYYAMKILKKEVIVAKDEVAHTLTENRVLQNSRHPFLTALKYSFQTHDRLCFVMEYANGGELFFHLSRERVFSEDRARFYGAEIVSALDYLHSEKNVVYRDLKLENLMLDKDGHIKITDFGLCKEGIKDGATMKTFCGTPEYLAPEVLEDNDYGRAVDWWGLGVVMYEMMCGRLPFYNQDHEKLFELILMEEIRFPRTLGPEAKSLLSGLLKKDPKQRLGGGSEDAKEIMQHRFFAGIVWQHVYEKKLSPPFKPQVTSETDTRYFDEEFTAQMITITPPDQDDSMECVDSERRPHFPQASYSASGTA

For data set [16], the target named is T8, GST-?PH-PKBα, P31749.
T8 chain: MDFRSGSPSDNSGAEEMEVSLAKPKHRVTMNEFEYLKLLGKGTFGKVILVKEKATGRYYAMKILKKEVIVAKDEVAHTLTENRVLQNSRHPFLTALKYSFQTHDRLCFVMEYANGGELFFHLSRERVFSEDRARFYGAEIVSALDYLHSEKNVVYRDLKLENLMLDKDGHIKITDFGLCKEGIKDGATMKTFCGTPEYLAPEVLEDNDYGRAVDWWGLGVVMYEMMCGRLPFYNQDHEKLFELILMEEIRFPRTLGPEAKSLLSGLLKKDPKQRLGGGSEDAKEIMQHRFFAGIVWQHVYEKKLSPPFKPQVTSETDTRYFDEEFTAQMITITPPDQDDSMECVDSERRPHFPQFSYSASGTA

GST-FL-PKB 473D, P31749, sequence (P31749 other isoform, or with tags, fused parts or gaps): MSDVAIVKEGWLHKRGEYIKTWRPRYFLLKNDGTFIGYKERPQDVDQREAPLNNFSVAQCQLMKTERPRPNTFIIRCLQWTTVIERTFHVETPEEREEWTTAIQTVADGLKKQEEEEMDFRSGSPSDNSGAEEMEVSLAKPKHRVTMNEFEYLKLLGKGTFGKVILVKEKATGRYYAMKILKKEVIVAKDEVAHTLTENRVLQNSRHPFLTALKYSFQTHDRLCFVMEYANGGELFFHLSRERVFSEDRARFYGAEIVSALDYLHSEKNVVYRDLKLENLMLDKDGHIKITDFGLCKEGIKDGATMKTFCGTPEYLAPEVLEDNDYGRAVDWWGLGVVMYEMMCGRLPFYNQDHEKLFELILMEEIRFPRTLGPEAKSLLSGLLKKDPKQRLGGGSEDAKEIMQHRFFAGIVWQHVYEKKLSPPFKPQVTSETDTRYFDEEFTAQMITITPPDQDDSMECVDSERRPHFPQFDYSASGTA
p70 S6K-T2 (His-tagged, insect cells), P23443, sequence (P23443 whole entry, looked up): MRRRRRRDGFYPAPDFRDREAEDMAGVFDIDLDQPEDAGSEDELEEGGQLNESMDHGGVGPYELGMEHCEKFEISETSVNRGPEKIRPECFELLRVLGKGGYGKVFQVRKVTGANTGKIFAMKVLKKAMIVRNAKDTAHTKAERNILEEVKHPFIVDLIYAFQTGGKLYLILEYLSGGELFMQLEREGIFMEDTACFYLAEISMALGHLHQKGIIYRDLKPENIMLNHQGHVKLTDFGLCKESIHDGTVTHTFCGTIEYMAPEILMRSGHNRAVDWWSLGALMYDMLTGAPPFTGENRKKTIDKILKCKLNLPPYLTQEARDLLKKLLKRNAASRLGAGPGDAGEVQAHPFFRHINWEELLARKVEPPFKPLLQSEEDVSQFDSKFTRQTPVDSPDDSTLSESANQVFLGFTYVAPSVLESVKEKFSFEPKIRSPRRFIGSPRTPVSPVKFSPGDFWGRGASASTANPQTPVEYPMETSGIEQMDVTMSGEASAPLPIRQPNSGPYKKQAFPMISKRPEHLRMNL
412E-p70 S6K-T2 (His-tagged, insect cells), P23443, sequence (P23443 whole entry, looked up): as above
PDKtide, sequence (chain, as listed by the source): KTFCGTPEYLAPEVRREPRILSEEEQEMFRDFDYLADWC
GST-PKBα[F472A], P31749, sequence (P31749 whole entry F472A): as the sequence (P31749 other isoform, or with tags, fused parts or gaps) above, with F472A, D473S counted along it
GST-S6K1-T2[F411A], P23443, sequence (P23443 1-421 F411A): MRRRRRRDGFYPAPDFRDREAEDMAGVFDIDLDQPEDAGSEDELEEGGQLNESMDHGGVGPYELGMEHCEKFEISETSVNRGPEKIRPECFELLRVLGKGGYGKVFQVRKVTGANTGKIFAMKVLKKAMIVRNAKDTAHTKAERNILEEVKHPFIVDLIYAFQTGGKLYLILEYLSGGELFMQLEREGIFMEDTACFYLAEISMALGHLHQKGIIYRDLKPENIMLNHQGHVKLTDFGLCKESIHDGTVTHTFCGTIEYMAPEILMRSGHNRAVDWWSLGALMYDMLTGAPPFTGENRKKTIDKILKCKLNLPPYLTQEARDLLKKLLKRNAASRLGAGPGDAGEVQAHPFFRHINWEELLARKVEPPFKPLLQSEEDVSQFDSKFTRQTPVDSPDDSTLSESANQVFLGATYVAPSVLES

B1: His-PDK1 (protein)
chain: DGTAAEPRPGAGSLQHAQPPPQPRKKRPEDFKFGKILGEGSFSTVVLARELATSREYAIKILEKRHIIKENKVPYVTRERDVMSRLDHPFFVKLYFTFQDDEKLYFGLSYAKNGELLKYIRKIGSFDETCTRFYTAEIVSALEYLHGKGIIHRDLKPENILLNEDMHIQITDFGTAKVLSPESKQARANSFVGTAQYVSPELLTEKSACKSSDLWALGCIIYQLVAGLPPFRAGNEYLIFQKIIKLEYDFPEKFFPKARDLVEKLLVLDATKRLGCEEMEGYGPLKAHPFFESVTWENLHQQTPPKLTAYLPAMSEDDEDCYGNYDNLLSQFGCMQVSSSSSSHSLSASDTGLPQRSGSNIEQYIHDLDSNSFELDLQFSEDEKRLLLEKQAGGNPWHQFVENNLILKMGPVDKRKGLFARRRQLLLTEGPHLYYVDPVNKVLKGEIPWSQELRPEAKNFKTFFVHTPNRTYYLMDPSGNAHKWCRKIQEVWRQRYQSHPDAAVQ
With B1, in data set [1], the “Km of PDK1 for the peptide substrate” value was “the Km was very high (>10 mM)”. For the same protein, in [2], the “rate of phosphorylation at 100 µM, against T308tide” value is “phosphorylated at a rate over 100-fold greater than that using T308tide”.

B2: GST-PDK1 (wild type) (protein)
chain: MARTTSQLYDAVPIQSSVVLCSCPSPSMVRTQTESSTPPGIPGGSRQGPAMDGTAAEPRPGAGSLQHAQPPPQPRKKRPEDFKFGKILGEGSFSTVVLARELATSREYAIKILEKRHIIKENKVPYVTRERDVMSRLDHPFFVKLYFTFQDDEKLYFGLSYAKNGELLKYIRKIGSFDETCTRFYTAEIVSALEYLHGKGIIHRDLKPENILLNEDMHIQITDFGTAKVLSPESKQARANSFVGTAQYVSPELLTEKSACKSSDLWALGCIIYQLVAGLPPFRAGNEYLIFQKIIKLEYDFPEKFFPKARDLVEKLLVLDATKRLGCEEMEGYGPLKAHPFFESVTWENLHQQTPPKLTAYLPAMSEDDEDCYGNYDNLLSQFGCMQVSSSSSSHSLSASDTGLPQRSGSNIEQYIHDLDSNSFELDLQFSEDEKRLLLEKQAGGNPWHQFVENNLILKMGPVDKRKGLFARRRQLLLTEGPHLYYVDPVNKVLKGEIPWSQELRPEAKNFKTFFVHTPNRTYYLMDPSGNAHKWCRKIQEVWRQRYQSHPDAAVQ
On to B2, for which the “concentration needed to obtain 50% activation of PDK1 (T308tide as substrate)” value in data set [3] was determined as 0.14 µM for wt-PIFtide; in data set [6], 1.1 µM for D978A-PIFtide. For the same protein, the “phosphorylation of p70 S6K at Thr412 by PDK1 (T412-P immunoblot)” value in [3] is “The 24 residue PIF peptide prevented PDK1 from phosphorylating the p70 S6K at Thr412”. The “rate of phosphorylation by PDK1 compared to the wild type enzyme” value in data set [4] was “PKB[F472A] was phosphorylated at a similar rate to the wild type PKB”; in data set [7] it was “markedly reduced”; in data set [10], “markedly reduced”; in data set [15], “markedly reduced”. Further, the relative phosphorylation of the substrate by PDK1-wt, +PIFtide (relative, PKB[S473D]=100) in [5] turned out to be 0.2; in data set [8] it was 19.3; in data set [9], 9.6; in data set [11], 7.4; in data set [12], 3.8; in [13], 85.4. Further, the figures for the relative phosphorylation of the substrate by PDK1-wt, +PIFtide (relative, PKB[S473D]=100) in data set [14] and in [16] were 0.58 and 0.25, respectively. Besides, the relative phosphorylation of the substrate by PDK1-wt, no PIFtide (relative, PKB[S473D]=100) is 0.9 in data set [5]; 28 in data set [8]; 71 in data set [9]; 54 in data set [11]; 8 in data set [12]; 100 in [13]. For the same protein, the relative phosphorylation of the substrate by PDK1-wt, no PIFtide (relative, PKB[S473D]=100) in [14] was determined as 10.4; in data set [16] it was 0.4.

B3: GST-PDK1 L155E (protein)
chain: MARTTSQLYDAVPIQSSVVLCSCPSPSMVRTQTESSTPPGIPGGSRQGPAMDGTAAEPRPGAGSLQHAQPPPQPRKKRPEDFKFGKILGEGSFSTVVLARELATSREYAIKILEKRHIIKENKVPYVTRERDVMSRLDHPFFVKLYFTFQDDEKEYFGLSYAKNGELLKYIRKIGSFDETCTRFYTAEIVSALEYLHGKGIIHRDLKPENILLNEDMHIQITDFGTAKVLSPESKQARANSFVGTAQYVSPELLTEKSACKSSDLWALGCIIYQLVAGLPPFRAGNEYLIFQKIIKLEYDFPEKFFPKARDLVEKLLVLDATKRLGCEEMEGYGPLKAHPFFESVTWENLHQQTPPKLTAYLPAMSEDDEDCYGNYDNLLSQFGCMQVSSSSSSHSLSASDTGLPQRSGSNIEQYIHDLDSNSFELDLQFSEDEKRLLLEKQAGGNPWHQFVENNLILKMGPVDKRKGLFARRRQLLLTEGPHLYYVDPVNKVLKGEIPWSQELRPEAKNFKTFFVHTPNRTYYLMDPSGNAHKWCRKIQEVWRQRYQSHPDAAVQ
In the case of B3, the relative phosphorylation of the substrate by PDK1-L155E, +PIFtide (relative, PKB[S473D]=100) in data set [5] amounted to 0.15; in [8] it was 35; in [9], 3.4; in [11], 0.108; in data set [12] it was 2.4; in data set [13], 162. The relative phosphorylation of the substrate by PDK1-L155E, +PIFtide (relative, PKB[S473D]=100) in data set [14] was found to be 0.27; in [16], 0.25. Further, the relative phosphorylation of the substrate by PDK1-L155E, no PIFtide (relative, PKB[S473D]=100) in data set [5] turned out to be 0.18; in [8] it was 35; in data set [9], 3.5; in data set [11], 0.5; in data set [12], 3.3; in data set [13], 178. For the same protein, the relative phosphorylation of the substrate by PDK1-L155E, no PIFtide (relative, PKB[S473D]=100) turned out to be 0.6 in [14] and 0.23 in data set [16].

These data come from patent US20030143656.
